Patent US11541107B2, “Peptides and T cells for use in immunotherapeutic treatment of various cancers” (Immatics Biotechnologies GmbH, priority 2015, dated 2023)

The substances below were run against HLA-A*02 (Homo sapiens, UniProt P04439, D140Y/D185E/D98H/E176V/E277Q/G131W/G231S/I119V/I121R/I166T/I218V/L300P/N151K/N90K/P208A/P217A/Q86G/Q94H/R138H/R169H) (assay: MHC binding assay, UV-ligand exchange with beta2m ELISA, HLA-A*02). Details: binding to HLA-A*02 ranged by peptide exchange yield (UV-ligand exchange, beta2m ELISA).
Text: Candidate peptides for T cell based therapies according to the present invention were further tested for their MHC binding capacity (affinity). The individual peptide-MHC complexes were produced by UV-ligand exchange, where a UV-sensitive peptide is cleaved upon UV-irradiation, and exchanged with the peptide of interest as analyzed. Only peptide candidates that can effectively bind and stabilize the peptide-receptive MHC molecules prevent dissociation of the MHC complexes. To determine the yield of the exchange reaction, an ELISA was performed based on the detection of the light chain (ß2 m) of stabilized MHC complexes. The assay was performed as generally described in Rodenko et al. (Rodenko et al., 2006).
96 well MAXISorp plates (NUNC) were coated over night with 2 ug/ml streptavidin in PBS at room temperature, washed 4× and blocked for 1 h at 37° C. in 2% BSA containing blocking buffer. […] Peptide-MHC monomers of the UV-exchange reaction were diluted 100 fold in blocking buffer. Samples were incubated for 1 h at 37° C., washed four times, incubated with 2 ug/ml HRP conjugated anti-β2 m for 1h at 37° C., washed again and detected with TMB solution that is stopped with […]. Absorption was measured at 450 nm. Candidate peptides that show a high exchange yield (preferably higher than 50%, most preferred higher than 75%) are generally preferred for a generation and production of antibodies or fragments thereof, and/or T cell receptors or fragments thereof, as they show sufficient avidity to the MHC molecules and prevent dissociation of the MHC complexes.

Row | Peptide exchange | Substance
1 | ++++ (>=75% = ++++) | 31 (ALSDETKNNWEV; listed as Homo sapiens) [compound 31]
2 | +++ (50%-75% = +++) | 32 (ILADEAFFSV; listed as Homo sapiens) [compound 32]
3 | +++ (50%-75% = +++) | 33 (LLLPLLPPLSPSLG; listed as Homo sapiens) [compound 33]
4 | ++ (20%-49% = ++) | 35 (YVLPKLYVKL; listed as Homo sapiens) [compound 35]
5 | ++++ (>=75% = ++++) | 36 (KLYGIEIEV; listed as Homo sapiens) [compound 36]
6 | +++ (50%-75% = +++) | 37 (ALINDILGELVKL; listed as Homo sapiens) [compound 37]
7 | +++ (50%-75% = +++) | 38 (KMQEDLVTL; listed as Homo sapiens) [compound 38]
8 | +++ (50%-75% = +++) | 39 (ALMAVVSGL; listed as Homo sapiens) [compound 39]
9 | +++ (50%-75% = +++) | 40 (SLLALPQDLQA; listed as Homo sapiens) [compound 40]
10 | +++ (50%-75% = +++) | 41 (FVLPLVVTL; listed as Homo sapiens) [compound 41]
11 | +++ (50%-75% = +++) | 42 (VLSPFILTL; listed as Homo sapiens) [compound 42]
12 | ++ (20%-49% = ++) | 44 (GLLWQIIKV; listed as Homo sapiens) [compound 44]
13 | +++ (50%-75% = +++) | 45 (VLGPTPELV; listed as Homo sapiens) [compound 45]
14 | +++ (50%-75% = +++) | 46 (SLAKHGIVAL; listed as Homo sapiens) [compound 46]
15 | +++ (50%-75% = +++) | 47 (GLYQAQVNL; listed as Homo sapiens) [compound 47]
16 | ++ (20%-49% = ++) | 48 (TLDHKPVTV; listed as Homo sapiens) [compound 48]
17 | +++ (50%-75% = +++) | 49 (LLDESKLTL; listed as Homo sapiens) [compound 49]
18 | ++ (20%-49% = ++) | 50 (EYALLYHTL; listed as Homo sapiens) [compound 50]
19 | +++ (50%-75% = +++) | 51 (LLLDGDFTL; listed as Homo sapiens) [compound 51]
20 | +++ (50%-75% = +++) | 52 (ELLSSIFFL; listed as Homo sapiens) [compound 52]
21 | +++ (50%-75% = +++) | 53 (SLLSHVIVA; listed as Homo sapiens) [compound 53]
22 | +++ (50%-75% = +++) | 54 (FINPKGNWLL; listed as Homo sapiens) [compound 54]
23 | ++ (20%-49% = ++) | 55 (IASAIVNEL; listed as Homo sapiens) [compound 55]
24 | ++ (20%-49% = ++) | 56 (KILDLTRVL; listed as Homo sapiens) [compound 56]
25 | ++ (20%-49% = ++) | 57 (VLISSTVRL; listed as Homo sapiens) [compound 57]

Row | Peptide exchange | Substance
26 | ++ (20%-49% = ++) | 58 (ALDDSLTSL; listed as Homo sapiens) [compound 58]
27 | +++ (50%-75% = +++) | 59 (ALTKILAEL; listed as Homo sapiens) [compound 59]
28 | ++ (20%-49% = ++) | 60 (FLIDTSASM; listed as Homo sapiens) [compound 60]
29 | ++ (20%-49% = ++) | 61 (HLPDFVKQL; listed as Homo sapiens) [compound 61]
30 | +++ (50%-75% = +++) | 62 (SLFNQEVQI; listed as Homo sapiens) [compound 62]
31 | + (<20% = +) | 63 (TLSSERDFAL; listed as Homo sapiens) [compound 63]
32 | ++ (20%-49% = ++) | 64 (GLSSSSYEL; listed as Homo sapiens) [compound 64]
33 | +++ (50%-75% = +++) | 65 (KLDGICWQV; listed as Homo sapiens) [compound 65]
34 | +++ (50%-75% = +++) | 66 (FITDFYTTV; listed as Homo sapiens) [compound 66]
35 | ++ (20%-49% = ++) | 67 (GVIETVTSL; listed as Homo sapiens) [compound 67]
36 | +++ (50%-75% = +++) | 69 (GIYDGILHSI; listed as Homo sapiens) [compound 69]
37 | +++ (50%-75% = +++) | 70 (GLFSQHFNL; listed as Homo sapiens) [compound 70]
38 | +++ (50%-75% = +++) | 71 (GLITVDIAL; listed as Homo sapiens) [compound 71]
39 | +++ (50%-75% = +++) | 72 (GMIGFQVLL; listed as Homo sapiens) [compound 72]
40 | ++ (20%-49% = ++) | 74 (ILDETLENV; listed as Homo sapiens) [compound 74]
41 | +++ (50%-75% = +++) | 75 (ILDNVKNLL; listed as Homo sapiens) [compound 75]
42 | +++ (50%-75% = +++) | 76 (ILLDESNFNHFL; listed as Homo sapiens) [compound 76]
43 | +++ (50%-75% = +++) | 77 (IVLSTIASV; listed as Homo sapiens) [compound 77]
44 | +++ (50%-75% = +++) | 78 (LLWGHPRVA; listed as Homo sapiens) [compound 78]
45 | ++++ (>=75% = ++++) | 79 (SLVPLQILL; listed as Homo sapiens) [compound 79]
46 | +++ (50%-75% = +++) | 80 (TLDEYLTYL; listed as Homo sapiens) [compound 80]
47 | ++ (20%-49% = ++) | 81 (VLFLGKLLV; listed as Homo sapiens) [compound 81]
48 | ++ (20%-49% = ++) | 82 (VLLRVLIL; listed as Homo sapiens) [compound 82]
49 | +++ (50%-75% = +++) | 83 (ELLEYLPQL; listed as Homo sapiens) [compound 83]
50 | +++ (50%-75% = +++) | 84 (FLEEEITRV; listed as Homo sapiens) [compound 84]

Row | Peptide exchange | Substance
51 | +++ (50%-75% = +++) | 85 (STLDGSLHAV; listed as Homo sapiens) [compound 85]
52 | +++ (50%-75% = +++) | 87 (YLTEVFLHVV; listed as Homo sapiens) [compound 87]
53 | +++ (50%-75% = +++) | 88 (ILLNTEDLASL; listed as Homo sapiens) [compound 88]
54 | +++ (50%-75% = +++) | 89 (YLVAHNLLL; listed as Homo sapiens) [compound 89]
55 | + (<20% = +) | 90 (GAVAEEVLSSI; listed as Homo sapiens) [compound 90]
56 | + (<20% = +) | 91 (SSLEPQIQPV; listed as Homo sapiens) [compound 91]
57 | ++ (20%-49% = ++) | 92 (LLRGPPVARA; listed as Homo sapiens) [compound 92]
58 | +++ (50%-75% = +++) | 93 (SLLTQPIFL; listed as Homo sapiens) [compound 93]
59 | +++ (50%-75% = +++) | 321 (SLWFKPEEL; listed as Homo sapiens) [compound 321]
60 | +++ (50%-75% = +++) | 323 (ILSVVNSQL; listed as Homo sapiens) [compound 323]
61 | ++++ (>=75% = ++++) | 324 (AIFDFCPSV; listed as Homo sapiens) [compound 324]
62 | ++ (20%-49% = ++) | 325 (RLLPKVQEV; listed as Homo sapiens) [compound 325]
63 | +++ (50%-75% = +++) | 326 (SLLPLVWKI; listed as Homo sapiens) [compound 326]
64 | +++ (50%-75% = +++) | 327 (SIGDIFLKY; listed as Homo sapiens) [compound 327]
65 | ++ (20%-49% = ++) | 328 (SVDSAPAAV; listed as Homo sapiens) [compound 328]
66 | ++ (20%-49% = ++) | 329 (FAWEPSFRDQV; listed as Homo sapiens) [compound 329]
67 | +++ (50%-75% = +++) | 330 (FLWPKEVEL; listed as Homo sapiens) [compound 330]
68 | +++ (50%-75% = +++) | 331 (AIWKELISL; listed as Homo sapiens) [compound 331]
69 | +++ (50%-75% = +++) | 333 (GTFLEGVAK; listed as Homo sapiens) [compound 333]
70 | +++ (50%-75% = +++) | 334 (GRADALRVL; listed as Homo sapiens) [compound 334]
71 | ++ (20%-49% = ++) | 335 (VLLAAGPSAA; listed as Homo sapiens) [compound 335]
72 | ++ (20%-49% = ++) | 336 (GLMDGSPHFL; listed as Homo sapiens) [compound 336]
73 | +++ (50%-75% = +++) | 337 (KVLGKIEKV; listed as Homo sapiens) [compound 337]
